Measurements reported in paper PMC3823766, “Paralogs hnRNP L and hnRNP LL Exhibit Overlapping but Distinct RNA Binding Constraints”.

Experiments:
Assay in all cases: EMSA; EMSA: ~1 fmol 32P RNA (0.1 nM), 4.5% native PAGE; binding buffer as in cited ref 9, not given; BC50 values printed only in figures
FLAG-hnRNP LL [1] = target: T1, FLAG-hnRNP LL (UniProt Q8WVV9 1-542); conditions: protein: recombinant; tags: N-terminal FLAG; label: 32P-CTP body label
T1 sequence: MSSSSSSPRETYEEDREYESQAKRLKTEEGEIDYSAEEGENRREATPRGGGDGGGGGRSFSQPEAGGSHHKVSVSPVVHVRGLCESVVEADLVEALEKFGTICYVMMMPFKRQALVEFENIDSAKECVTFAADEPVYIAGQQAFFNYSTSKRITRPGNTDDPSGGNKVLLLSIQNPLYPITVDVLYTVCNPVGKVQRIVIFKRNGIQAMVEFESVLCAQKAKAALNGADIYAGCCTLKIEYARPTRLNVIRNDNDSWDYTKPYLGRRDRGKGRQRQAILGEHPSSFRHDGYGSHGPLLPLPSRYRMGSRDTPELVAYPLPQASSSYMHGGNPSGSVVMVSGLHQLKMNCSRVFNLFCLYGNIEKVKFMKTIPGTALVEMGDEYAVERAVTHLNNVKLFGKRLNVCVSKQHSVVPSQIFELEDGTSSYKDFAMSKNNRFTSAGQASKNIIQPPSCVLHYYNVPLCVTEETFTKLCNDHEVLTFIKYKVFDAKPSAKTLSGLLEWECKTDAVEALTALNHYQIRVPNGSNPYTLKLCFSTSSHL

GST-hnRNP L [2] = target: T2, GST-hnRNP L (UniProt P14866 1-589); conditions: protein: recombinant; label: 32P-CTP body label
T2 sequence: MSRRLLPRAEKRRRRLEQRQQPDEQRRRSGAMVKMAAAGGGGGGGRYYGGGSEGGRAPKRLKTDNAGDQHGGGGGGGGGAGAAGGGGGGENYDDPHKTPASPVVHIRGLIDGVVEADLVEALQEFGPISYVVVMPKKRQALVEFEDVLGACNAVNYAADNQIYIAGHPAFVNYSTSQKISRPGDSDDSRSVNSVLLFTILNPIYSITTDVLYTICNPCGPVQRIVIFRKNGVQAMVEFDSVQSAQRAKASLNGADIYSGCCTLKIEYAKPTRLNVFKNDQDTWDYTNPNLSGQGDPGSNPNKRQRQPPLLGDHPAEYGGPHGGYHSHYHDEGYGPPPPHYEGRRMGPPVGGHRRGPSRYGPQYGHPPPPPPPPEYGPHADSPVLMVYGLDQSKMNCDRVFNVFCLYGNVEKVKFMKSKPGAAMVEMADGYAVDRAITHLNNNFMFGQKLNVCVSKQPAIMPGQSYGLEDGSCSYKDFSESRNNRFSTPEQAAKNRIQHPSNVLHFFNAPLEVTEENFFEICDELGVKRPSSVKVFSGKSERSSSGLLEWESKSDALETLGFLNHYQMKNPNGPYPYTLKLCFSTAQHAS

FLAG-hnRNP LL [3] = target: T1, FLAG-hnRNP LL; conditions: protein: recombinant; tags: N-terminal FLAG; label: 32P-CTP body label; remark: listed apart in the source
GST-hnRNP L [4] = target: T2, GST-hnRNP L; conditions: protein: recombinant; label: 32P-CTP body label; remark: listed apart in the source
FLAG-hnRNP LL [5] = target: T1, FLAG-hnRNP LL; conditions: protein: recombinant; tags: N-terminal FLAG; label: 32P-CTP body label; remark: listed apart in the source
GST-hnRNP L [6] = target: T2, GST-hnRNP L; conditions: protein: recombinant; label: 32P-CTP body label; remark: listed apart in the source
FLAG-hnRNP LL [7] = target: T1, FLAG-hnRNP LL; conditions: protein: recombinant; tags: N-terminal FLAG; label: 32P-CTP body label; remark: listed apart in the source

| Binder | binding result (FLAG-hnRNP LL [1]) | binding result (GST-hnRNP L [2]) | binding signal (GST-hnRNP L [6]) | also measured |
| --- | --- | --- | --- | --- |
| CAuaCA (N=2) (ssRNA) RNA: GAUCCUACAUACAUAGAUCUUACAUACAUAGAUCUUACAUACAUAGAUCUUACAUACAUAGAUCU | binds | binds |  |  |
| CAccCA (ssRNA) RNA: GAUCCCCCACCCAAGAUCUCCCACCCAAGAUCUCCCACCCAAGAUCUCCCACCCAAGAUCU |  |  |  | binding signal (FLAG-hnRNP LL [3]): 5 fold weaker than CACACA; binding signal (GST-hnRNP L [4]): 15 fold weaker than CACACA |
| CA spacer N=3 (ssRNA) RNA: GAUCCUACAUUACAUAGAUCUUACAUUACAUAGAUCUUACAUUACAUAGAUCUUACAUUACAUAGAUCU |  | binds |  |  |
| CACACA x4 (N=2 ca spacer) (ssRNA) RNA: GAUCCUUCACACAUUAGAUCUUUCACACAUUAGAUCUUUCACACAUUAGAUCUUUCACACAUUAGAUCU | binds | binds |  |  |
| CAcCA (N=1) (ssRNA) RNA: GAUCCUCACCACCAUAGAUCUUCACCACCAUAGAUCUUCACCACCAUAGAUCUUCACCACCAUAGAUCU |  | binds |  | binding signal (FLAG-hnRNP LL [5]): > 4 fold weaker than CACACA (at least) |
| CUUACCUACUCACACCACUGCAUUCUCACCCGCAAGCACC (ssRNA) [ESS1 wild type] |  |  |  | Kd (FLAG-hnRNP LL [1]): ~2 nM; Kd (GST-hnRNP L [2]): ~2 nM |
| CUUACCUACUCACACCACUGGAUUCUCACCCGCAAGCACC (ssRNA) [ESS1 CA4 mutant (CA to GA)] | binds |  | ~2 fold weaker than ESS1 |  |
| CUUACCUACUCACACCACUGCAUUCUCACCCGCAAGUACC (ssRNA) [ESS1 CA7 mutant (CA to TA)] |  | binds |  | binding signal (FLAG-hnRNP LL [7]): > 5 fold weaker than ESS1 |
| CUUACCUACUUACACCACUGCAUUCUCACCCGCAAGCACC (ssRNA) [ESS1 CA1 mutant (CA to TA)] | binds |  |  |  |
| CUUACCUACUCACACCACUGCAUUCUCACCCGGAAGCACC (ssRNA) [ESS1 CA6 mutant (CA to GA)] |  |  | ~10 fold weaker than ESS1 | binding signal (FLAG-hnRNP LL [7]): > 5 fold weaker than ESS1 |
| CUUACCUACUCACACCACUGCAUUCUGACCCGCAAGCACC (ssRNA) [ESS1 CA5 mutant (CA to GA)] | binds |  |  |  |
| CUUACCUACUCAGACCACUGCAUUCUCACCCGCAAGCACC (ssRNA) [ESS1 CA2 mutant (CA to GA)] | binds |  | ~2 fold weaker than ESS1 |  |
| CUUACCUACUCACACGACUGCAUUCUCACCCGCAAGCACC (ssRNA) [ESS1 CA3 mutant (CA to GA)] | binds |  | ~4 fold weaker than ESS1 |  |
